This note sets out measurements from patent US20220401560A1, “PEPTIDE ENCAPSULATING FERRITIN” (Ajinomoto Co., Inc., priority 2019, published 2022).

For the test, the target named is transferrin receptor TfR (human) (UniProt P02786). As to the kind of experiment: cell-based or functional assay.

Chain of FAM-SV40 encapsulating FTH (P02794 whole entry): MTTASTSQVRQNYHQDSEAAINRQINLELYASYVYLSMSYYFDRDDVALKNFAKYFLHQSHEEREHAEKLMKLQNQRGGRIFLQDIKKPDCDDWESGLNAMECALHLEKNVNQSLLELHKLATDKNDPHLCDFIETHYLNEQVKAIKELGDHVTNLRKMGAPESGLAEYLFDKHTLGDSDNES

For “FAM-SV40 encapsulating FTH (from UniProt P02794 1-183)”, the concentration needed for fluorescence from 90% or more of HEK 293E cells (low TfR expression) by FACS is above 800 nM; the percent of fluorescent SKBR 3 cells (high TfR expression) by FACS at 100 nM FAM-SV40 encapsulating FTH is above 90%; the ratio of fluorescent cells, SKBR 3 (high TfR) against HEK 293E (low TfR), at 100 nM turned out to be 60 times.
